The values that follow come from patent publication US20210292393A1 (published 2021).

Where a chain is given by its changes, count along the chain named.

Assay [1] deals with SARS-CoV-2 full length spike protein (wild type) (SARS-CoV-2, UniProt P0DTC2 14-1273).
For assay [2], the target named is SARS-CoV-2 full length spike protein (wild type) (SARS-CoV-2, UniProt P0DTC2 14-1208).
The target in assay [3] is SARS-CoV-2 spike protein (wild type), spike protein trimer (SARS-CoV-2, UniProt P0DTC2 14-1208).
Assay [4] concerns the target SARS-CoV-2 full-length spike protein on pseudotyped lentivirus (SARS-CoV-2, UniProt P0DTC2 14-1273). In words: cell-based or functional assay.

B1: antibody 301 (antibody, V domains shown)
VH: QVQLVQSGAEVKKPGASVKVSCKVSGYTLTELSMHWVRQAPGKGLEWMGGFDPEDGETIYAQKFQGRVTMTEDTSTDTAYMELSSLRSEDTAVYYCATAFCGGDCYPPDALDIWGQGTMVTVSS
VL: DIQMTQSPSSVSASVGDRVTITCRASQGISSWLAWYQQKPGKAPKLLIYAASSLQSGVPSRFSGSGSGTDFTLTISSLQPEDFATYYCQQANSFPLTFGGGTKVEIK
On to B1, for which the “median fluorescence intensity, fold over isotype control” value (from here on “median fluorescence intensity, fold”) in assay [1] turned out to be 29.7 fold over isotype.

B2: antibody 301 (antibody, V domains shown)
VH: B1 VH
VL: B1 VL
With B2, in assay [2], the “binding signal, bead assay (fold over isotype)” value came out at 865.

B3: antibody 299 (antibody, V domains shown)
VH: not shown
VL: EIVLTQSPATLSLSPGERATLSCRASQSVSSYLAWYQQKPGQAPRLLIYDASNRATGIPARFSGSGSGTDFTLTISSLEPEDFAVYYCQQRSNWPWTFGQGTKVEIK
Regarding B3, the “binding signal, bead assay (fold over isotype)” value in assay [2] is 1.43.

B4: antibody 266 (antibody, V domains shown)
VH: QVQLVESGGGVVQPGRSLRLSCAASGFNLSNYAMHWVRQPSGKGLEWVSLISYDGSIKYYTDSVKGRFTVSGDNSKNTLFLQMNSLRPDDSALYYCVRGGVSGPNSFDMWGQGTTVTVSS
VL: DVVMTQSPLSLPVTLGQPASISCRSSQSLVYSDGNTYVNWFQQRPGQSPRRLIYQVSIRASGVPDRFSGSGSGTDFALKISRVEAEDVGVYYCMQGTHWPVTFGQGTKVEIK
For the molecule B4, in assay [2], the “binding signal, bead assay (fold over isotype)” value stood at 473.

B5: antibody 303 (antibody, V domains shown)
VH: B4 VH with N31S, P40A, T61A, T78M, P88A, S106A, M109I
VL: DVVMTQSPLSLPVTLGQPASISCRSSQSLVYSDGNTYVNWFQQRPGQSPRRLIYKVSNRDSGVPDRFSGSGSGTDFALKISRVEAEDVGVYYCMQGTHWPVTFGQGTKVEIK
In the case of B5, the “binding signal, bead assay (fold over isotype)” value in assay [2] came to 341.

B6: antibody 317 (antibody, V domains shown)
VH: QVQLVQSGAEVKKPGASVKVSCKVSGYTLTELSMHWVRQAPGKGLEWMGGFDPEDGETIYAQKFQGRVTMTEDTSTDTAYMELSSLRSEDTAVYYCASSPAAAGTSQYYYYYGMDVWGQGTTVTVSS
VL: not shown
As to B6, the “median fluorescence intensity, fold” value in assay [1] was 11.2 fold over isotype.

B7: antibody 290 (antibody, V domains shown)
VH: QVHLVQSGAEVKKPGASVKVSCAASGYTFNNYGVSWVRQAPGQGLEWMGWISASNGNTKYAQNLQGRVTMTTDTSTSTAYMELRSLRSDDTAVYYCARDLVGPTAPNYYYGMDVWGQGTAVTVSS
VL: QSVLTQPPSVSGAPGQRVTISCTGSSSSIGAGYDVHWYQQLPGTAPKLLIYANSNRPSGVPDRLSGSKSGTSASLAITGLQAEDEADYYCQSYDSSLSGYVFGTGTKVTVL
For the molecule B7, in assay [2], the “binding signal, bead assay (fold over isotype)” value came out at 1.16.

B8: antibody 260 (antibody, V domains shown)
VH: EVQLVESGGGLVQPGRSLRLSCAASGFTFDYYAMHWVRQAPGKGLEWVSGISWNSGTIGYADSVKGRFTISRDNAKNSLYLQMNSLRAEDTALYYCAKDSRPSGRYYYGMDVWGQGTTVTVSS
VL: not shown
As for B8, the “binding signal, bead assay (fold over isotype)” value in assay [2] was determined as 724.

B9: antibody 260 (antibody, V domains shown)
VH: B8 VH
VL: not shown
On to B9, for which the “median fluorescence intensity, fold” value in assay [1] was determined as 10.3 fold over isotype.

B10: anti-SARS-CoV-2 antibody 1009 (antibody, V domains shown)
VH: QLQLQESGPGLVKPSQTLSLTCTVSGGSISSGSYYWSWIRQPAGKGLEWIGSIYTSGSTYYNPSLKSRVTISVDTSKNQFSLKLSSVTAADTAVYYCARKNWLQGSFDYWGQGTLVIVSS
VL: NFMLTQPHSVSESPGKTVTISCTRSSGSIANNYVQWYQQRPGSAPTTVIYEDNQRPSGVPDRFSGSIDSSSNSASLTISGLKTEDEADYYCQSYDTSNHGVFGGGTKLTVL
In turn, B10 had a Kd in assay [3] of 0.168 nM. Further, the “Pseudo-neutralization IC50” value in assay [4] was 0.17 µg/mL.

B11: anti-SARS-CoV-2 antibody 923 (antibody, V domains shown)
VH: EVQLVESGGGVVRPGGSLRLSCAASGFIFDDYDMTWVRQAPGKGLEWVSGISWNGGNTGYADSVKGRFTISRDNAKNSLYLQMNSLRAEDTALYHCAVIMSPIPRYSGYDWAGGAFDIWGQGTMVTVSS
VL: SSELTQDPAVSVALGQTVRITCQGDSLRSYYASWYQQKPGQVPILVIYDKNNRPSGIPDRFSGSSSGNTASLTITGAQAEDEADYYCNSRDSSGNAVVFGGGTKLTVL
B11 returned a Kd in assay [3] of 0.035 nM. Further, the “Pseudo-neutralization IC50” value in assay [4] came to 0.093 µg/mL.

B12: anti-SARS-CoV-2 antibody 1203 (antibody, V domains shown)
VH: QLRLQESGPGLVKPSETLSLTCTVSGGSISSSNFYWGWIRQPPGKGLEWIGSIYYSGSTHYNPSLKSRVTVSVDTSKNQFSLKLSSVTAADTAVYYCARLTYYYDSSGFIRAEPFDYWGQGILVTVSS
VL: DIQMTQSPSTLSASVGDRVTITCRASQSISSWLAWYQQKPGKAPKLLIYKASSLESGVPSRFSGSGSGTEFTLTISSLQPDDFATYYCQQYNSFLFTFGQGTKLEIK
For B12, in assay [3], binding was characterised by a dissociation constant (Kd) of 0.302 nM. In assay [4], the “Pseudo-neutralization IC50” value came out at 0.02 µg/mL.

B13: anti-SARS-CoV-2 antibody 1118 (antibody, V domains shown)
VH: EVQLVESGGGLVQPGGSLRLSCAASGFRFSNYEMNWVRQAPGKGLEWVSYISSTGGSIFYADSVKGRFTISRGDAKNSVYLQMNSLRAEDTAVYYCARAMYYYGSGTLDYWGQGTLVTVSS
VL: DIQMTQSPSSLSASVGDRVTITCRASQSISRFLNWYQQKPGTAPKLLIYDVSSLQSGVPTRFSGSGSGTDFTLTISSLQPEDFATYYCQQSYTTPPAFGPGTRVDIK
The molecule B13 returned a Kd in assay [3] of 0.223 nM. The “Pseudo-neutralization IC50” value in assay [4] is 0.026 µg/mL.

B14: antibody 294 (antibody, V domains shown)
VH: EVQLVESGGGLVQPGGSLRLSCAASGFTVSSNYMNWVRQAPGKGLEWVSVIYSGGSTYYADSVKGRFTISRDNSKNTLYLQMNSLRAEDTAVYYCARDLGPSGMDVWGQGTTVTVSS
VL: DIQMTQSPSSVSASVGDRVTITCRASQGISSWLAWYQQKPGKAPKLLIYAASSLQSGVPSRFSGSGSGTDFTLTISSLQPEDFATYYCQQANSFPLFGGGTKVEIK
In the case of B14, the “median fluorescence intensity, fold” value in assay [1] worked out at 22.2 fold over isotype.

B15: antibody 294 (antibody, V domains shown)
VH: B14 VH
VL: B14 VL
As to B15, the “binding signal, bead assay (fold over isotype)” value in assay [2] was found to be 1230.

B16: antibody 288 (antibody, V domains shown)
VH: EVQLVESGGGLVQPGGSLRLSCAASGFTFSSYDMHWVRQATGKGLEWVSAIGTAGDTYYPGSVKGRFTISRENAKNSLYLQMNSLRAGDTAVYYCARGANRDYDILTGYYSYYYYGMDVWGQGTTVTVSS
VL: not shown
On to B16, for which, in assay [1], the “median fluorescence intensity, fold” value worked out at 24.3 fold over isotype.

B17: antibody 288 (antibody, V domains shown)
VH: B16 VH
VL: not shown
On to B17, for which the “binding signal, bead assay (fold over isotype)” value in assay [2] turned out to be 495.

B18: antibody 295 (antibody, V domains shown)
VH: QVQLQESGPGLVKPSQTLSLTCTVSGGSISSSDYYWSWIRQPPGKGLEWIGYIYYSGSTYYNPSLKSRVTISVDTSKNQFSLKLSSVTAADTAVYYCARVVGYCSSTSCYVDYWGQGTLVTVSS
VL: EIVLTQSPATLSLSPGERVTLSCRASQSVSSYLAWYQQKPGQAPRLLIYDASNRATGIPARFSGSGSGTDFTLTISSLEPEDFAVYYCQQRSNWPPGLTFGGGTKVEIK
As to B18, in assay [1], the “median fluorescence intensity, fold” value stood at 9.67 fold over isotype.

B19: antibody 295 (antibody, V domains shown)
VH: B18 VH
VL: B18 VL
B19: the “binding signal, bead assay (fold over isotype)” value in assay [2] was 599.

B20: anti-SARS-CoV-2 antibody 1098 (antibody, V domains shown)
VH: DVQLVQSGAEVKKPGESLKISCKGSGYRFTSYWIAWVRQMPGKGLEWMGIIYPGDSDTRYSPSFQGQVTISADKSISTAYLQWSSLKASDTAMYYCASQAAAGYFYYMDVWGKGTTVTVSS
VL: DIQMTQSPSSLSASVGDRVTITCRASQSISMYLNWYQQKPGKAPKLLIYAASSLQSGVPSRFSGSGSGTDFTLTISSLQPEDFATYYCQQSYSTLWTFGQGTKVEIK
In assay [3], B20 registered a Kd of 0.173 nM. Moreover, the “Pseudo-neutralization IC50” value in assay [4] is 0.087 µg/mL.

B21: anti-SARS-CoV-2 antibody 933 (antibody, V domains shown)
VH: QVQLVQSGAEVKKPGASVKVSCKASGYTFTTYDINWVRQATGQGLEWMGWMNPNSGYTDSAQKFQGRVTMTRNTSISTAYMELSSLRSEDTAVYYCASGRGVKTYYFDYWGQGTLVTVSS
VL: SYELTQPPSVSVSPGQTASITCSGDKLGDKSACWYQQKPGQSPVLVICQDTKRPSGIPERFSGSNSGNTATLTISGTQAMDEADYYCQAWDSRTVVFGGGTKLTVL
In assay [3], B21 yielded a Kd of 0.276 nM. In addition, in assay [4], the “Pseudo-neutralization IC50” value is 0.022 µg/mL.

B22: antibody 300 (antibody, V domains shown)
VH: QVQLVESGGGVVQPGRSLTLSCAASGFTFSSYAMHWVRQAPGKGLEWVALISYDGNNKYYADSVKGRFTFSRDNSKNTLYLQMNSLRAEDTAVYYCARTNSGSYRTAFDYWGQGTLVTVSS
VL: DIQMTQSPSTLSASVGDRVTITCRASQSISIWLAWYQQKPGKAPKLLIYKASSLESGVPSRFSGSGSGTEFTLTISSLQPDDFATYYCQQYNSLWTFGQGTKVEIK
Consider B22, for which, in assay [1], the “median fluorescence intensity, fold” value is 9.71 fold over isotype.

B23: antibody 300 (antibody, V domains shown)
VH: B22 VH
VL: B22 VL
For the molecule B23, the “binding signal, bead assay (fold over isotype)” value in assay [2] amounted to 721.
